Data: the supplement of paper PMC10567573

B1: FBXO34 (parent)
chain: ASSVESTLPVLEASSWKKQVSHDF
B2: OAS1 (parent)
chain: YIGTHEYPHFSHRPSTLQAASTPQ

Variants of: B1
Test: protein stability index of a GFP-peptide fusion (GPS, HEK-293T) (PSI 1-6); higher = more stable
Conditions: c terminus: a fixed tail appended
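Note: lentivirally expressed fusions sorted by FACS into six bins by GFP to DsRed ratio, PSI derived from sequencing read proportions per bin multiplied by bin number.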

Protein stability index: each site, then its substitutions
S14: F 2.49; C 2.95; D 1.67; E 2.75
L8: Y 2.39; V 1.83; Q 2.04; I 2.82; R 3.05; T 3.38; G 3.59; C 3.4; E 3.38; F 2.52; S 3.57; H 2.89; M 1.91; P 2.66; K 3.22
T7: Y 3.37; P 2.31; A 2.9; K 2.82; V 2.85; L 2.42; R 2.7; Q 4.86; C 3.31; S 3.94; N 3.55; F 2.92; M 2.48; D 3.63; E 2.88; H 3.21
S2: I 2.26; K 3.04; T 3.39; A 2.81; G 2.81; Y 2.28; W 2.56; C 1.85; F 1.92; H 2.4; P 3.46; Q 3.09; L 1.47; N 2.58; R 2.8; E 3.94; V 2.92; D 3.18
A13: Q 2.37; I 2.49; H 2.37; D 3.19; V 3; L 2.61; M 2.85; F 2.38; N 3.21; C 2.36; P 3.66; R 1.59; S 3.36; K 2.27; T 2.18
E5: F 1.77; Q 2.51; S 3.21; K 2.48; I 2.17; M 2.84; H 2.4; L 2.9; C 2.38; V 2.9; A 2.68; N 2.28; W 2.03; G 2.61; Y 1.9; D 3.22
V10: C 2.95; M 3.73; H 2.5; F 2.22; L 2.55; Y 1.76; S 3.22; I 2.39; N 1.84; T 2.58; W 2.37; Q 3.16; E 2.83; D 3.25; R 2.3; G 3.41; P 3.19; K 2.45; A 3.64
A1: N 2.9; D 3.32; I 1.95; E 2.83; Y 1.78; G 2.99; L 3.35; Q 2.44; S 3.36; P 2.64; R 2.97; F 2.11; C 2.1; K 2.1; M 2.71; V 2.27; T 2.79
E12: C 2.54; S 2.32; N 3.1; H 2.82; I 2.12; F 2.25; P 3.46; V 2.73; K 2.36; G 2.49; T 2.86; Y 2.22; D 2.83; L 2.24; A 3.02
P9: E 1.96; V 2.4; N 2.51; M 2.6; H 1.56; I 1.74; F 2.12; K 2.5; S 2.28; D 3.03; T 1.98; L 2.04; G 1.89; Y 1.8; C 3.55; W 2.8
L11: M 2.33; V 3.03; R 3.05; Q 2.96; G 2.01; I 2.91; K 2.19; A 3.52; F 2.88; Y 2.69; T 2.87; C 2.85; E 3.02; N 2.85; P 2.78; W 2.54
S6: F 1.76; P 2.96; L 3.18; K 2.76; C 2.56; W 3.02; T 3.06; I 1.7; D 2.46; A 3.41; N 3.83; Y 2.48; R 2.43; M 2.36; H 2.42
V4: C 2.45; G 3.15; Q 3.53; T 2.88; A 3.39; R 2.64; H 3.39; M 2.51; W 2.5; Y 2.46; S 3.01; D 2.4; E 3.67; P 2.77; I 2.75; F 2.1
S3: W 2.02; C 2.19; H 3.38; E 3.72; K 2.56; A 1.86; D 3.29; N 3.07; P 3.31; V 2.49; Y 2.46; F 2.38; L 2.62; I 2.69; M 2.63; Q 2.88; T 3.22; G 3.27

Variants of: B2
Test: as above
Conditions: c terminus: a fixed tail appended

Protein stability index, by site and new letter:
A20: N 2.08; W 2.43; G 1.88; V 1.79; S 2.11; Y 1.89; E 2.56; D 1.75; C 1.84; T 2.04; L 2.39; H 1.64; F 1.73; M 1.93; I 2.19; K 2.17; P 1.97; Q 1.93; R 1.82
T22: K 2.35; Q 2.31; M 2.27; F 1.93; W 1.53; V 1.93; C 1.62; D 2.64; I 2.13; A 2.51; R 1.68; E 1.8; L 1.78; S 1.38; H 1.6; G 1.59; N 2.1; Y 1.71; P 2.17
S21: R 2; T 2.07; W 2.42; F 1.68; C 2.77; H 2; G 2.23; E 2.24; I 1.97; Q 2; M 1.94; L 1.53; P 1.67; K 1.81; V 1.89; Y 1.95; A 2.1; N 1.85; D 1.89
P23: G 1.53; S 2.27; H 2.4; D 2.15; A 2.14; C 1.88; R 1.86; T 2.48; F 1.72; Y 1.75; V 1.81; E 2.37; K 1.91; W 1.97; I 2.74; L 1.73; M 1.89; N 2.54; Q 2.23
A19: W 1.28; M 2.15; N 1.9; E 2.58; D 2.3; V 1.81; R 2.29; P 2.11; K 1.68; I 2.04; G 1.98; F 1.99; L 1.85; Q 2.04; C 2.07; H 1.89; Y 2.42; S 1.9; T 1.72
Q24: S 1.94; H 2.15; F 1.77; I 1.92; C 1.69; V 2.2; R 1.86; T 2.04; Y 2.4; E 2.25; M 1.87; A 1.66; W 2.25; N 2.07; G 2.2; K 1.81; L 2.29; D 2.06
Q18: W 2.75; Y 2.37; S 1.65; T 1.9; V 1.99
